Target: α-synuclein (human, UniProt P37840 1-140)
Experiment: quartz crystal microbalance (QCM); α-synuclein (1 μM) immobilised by amine coupling; 2.5, 5, 10, 15, 20 nM AD(Cys) added; citrate buffer (pH 4.0); kon, koff from linear regression of kobs against concentration
Details: both partners purified

Kd: 5.04 nM | koff: 0.00295 s⁻¹ | kon: 585000 M⁻¹ s⁻¹
B1: Hsp60 AD(Cys), isolated apical domain of human Hsp60 with cysteines at the N- and C-termini (domain or fragment)
chain: CGMKFDRGYISPYFINTSKGQKCEFQDAYVLLSEKKISSIQSIVPALEIANAHRKPLVIIAEDVDGEALSTLVLNRLKVGLQVVAVKAPGFGDNRKNQLKDMAIATGGAVFGEEGLTLNLEDVQPHDLGKVGEVIVTKDDAMLLKGKGDKAQIEKRIQEIIEQLDVTTSEYEKEKLNERLAKLSDC
modifications: disulfide bond between the two engineered cysteines at the N- and C-termini
notes: Cysteine introduced at the N-terminus; the primer ACCATGTGCGGCATGAAATTCGATCGCGGTT encodes Met-Cys-GMKFDRG; Apical domain of human Hsp60; Cysteine introduced at the C-terminus of the domain, before the His6 tag; the primer AGTGATTGCCACCACCACCACCACCACTGA encodes SD-Cys-HHHHHH-stop; A start Met precedes the N-terminal Cys in the construct; Monomer by gel filtration; also called …

Source: paper PMC6982183 (International Journal of Molecular Sciences, 2019)
